In publication PMC10569242, “VvWRKY5 enhances white rot resistance in grape by promoting the jasmonic acid pathway”:

Biological target: T1, VvWRKY5-HIS (Vitis vinifera, UniProt A0ABY9BGE3 8-330)
T1 sequence: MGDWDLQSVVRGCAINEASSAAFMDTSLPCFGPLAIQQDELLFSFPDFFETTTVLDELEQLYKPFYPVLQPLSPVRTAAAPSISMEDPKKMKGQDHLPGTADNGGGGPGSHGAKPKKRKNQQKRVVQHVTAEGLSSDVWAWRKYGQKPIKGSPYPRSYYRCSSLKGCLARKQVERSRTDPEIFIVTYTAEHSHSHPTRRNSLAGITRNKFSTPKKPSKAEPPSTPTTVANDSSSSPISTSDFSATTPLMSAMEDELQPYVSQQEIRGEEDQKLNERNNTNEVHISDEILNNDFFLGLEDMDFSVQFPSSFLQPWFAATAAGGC
Assay: EMSA; unlabeled cold probe competitor 100x/200x; LightShift Chemiluminescent EMSA Kit (Beyotime); buffer, salt, pH and temperature not stated
Settings: protein: recombinant; tags: His (pET-32a(+) fusion); blunt

B1: VvJAZ2 W-box probe (dsDNA)
DNA 1: TAAATCCTCACATCGGGTCAAGGATCGAGTATGC
DNA 2: GCATACTCGATCCTTGACCCGATGTGAGGATTTA
B1: binds.

B2: VvMYC2 W-box probe (dsDNA)
DNA 1: TAGGGTGGGGATTTGACCTGGGTCTGGAGATTCG
DNA 2: CGAATCTCCAGACCCAGGTCAAATCCCCACCCTA
B2: binds.
